Experimental data published in patent US20240209058A1 (published 2024).

Assays:
[1] = biological target: T1, human mesothelin (MSLN) peptide on HLA-A*02:01 (human); test: multimer staining
T1 peptide: SLLFLLFSL

[2] = biological target: T2, human mesothelin (MSLN) peptide on HLA-A*02:01 (human); test: multimer staining
T2 peptide: VLPLTVAEV

B1: MSLN20-28 clone 2 (TCR, V domains shown)
Valpha: DQQVKQNSPSLSVQEGRISILNCDYTNSMFDYFLWYKKYPAEGPTFLISISSIKDKNEDGRFTVFLNKSAKHLSLHIVPSQPGDSAVYFCAASGNTDKLIFGTGTRLQVFP
Vbeta: EPEVTQTPSHQVTQMGQEVILRCVPISNHLYFYWYRQILGQKVEFLVSFYNNEISEKSEIFDDQFSVERPDGSNFTLKIRSTKLEDSAMYFCASRPGWSYEQYFGPGTRLTVT
binding result [1]: recognises

B2: MSLN530-538 clone 4 (TCR, V domains shown)
Valpha: AQTVTQSQPEMSVQEAETVTLSCTYDTSESDYYLFWYKQPPSRQMILVIRQEAYKQQNATENRFSVNFQKAAKSFSLKISDSQLGDAAMYFCAYLGTGTYKYIFGTGTRLKVLA
Vbeta: EAQVTQNPRYLITVTGKKLTVTCSQNMNHEYMSWYRQDPGLGLRQIYYSMNVEVTDKGDVPEGYKVSRKEKRNFPLILESPSPNQTSLYFCASSSGGLGYTFGSGTRLTVV
binding result [2]: recognises

B3: MSLN20-28 clone 7 (TCR, V domains shown)
Valpha: ILNVEQSPQSLHVQEGDSTNFTCSFPSSNFYALHWYRWETAKSPEALFVMTLNGDEKKKGRISATLNTKEGYSYLYIKGSQPEDSATYLCAFYMDSNYQLIWGAGTKLIIKP
Vbeta: NAGVTQTPKFQVLKTGQSMTLQCAQDMNHNSMYWYRQDPGMGLRLIYYSASEGTTDKGEVPNGYNVSRLNKREFSLRLESAAPSQTSVYFCASSEWTAEQYFGPGTRLTVT
binding result [1]: recognises

B4: MSLN20-28 clone 8 (TCR, V domains shown)
Valpha: AQSVTQLDSQVPVFEEAPVELRCNYSSSVSVYLFWYVQYPNQGLQLLLKYLSGSTLVKGINGFEAEFNKSQTSFHLRKPSVHISDTAEYFCAVIPNNNARLMFGDGTQLVVKP
Vbeta: ETGVTQTPRHLVMGMTNKKSLKCEQHLGHNAMYWYKQSAKKPLELMFVYNFKEQTENNSVPSRFSPECPNSSHLFLHLHTLQPEDSALYLCASGQGTEAFFGQGTRLTVV
binding result [1]: recognises

B5: MSLN530-538 clone 5 (TCR, V domains shown)
Valpha: TQLLEQSPQFLSIQEGENLTVYCNSSSVFSSLQWYRQEPGEGPVLLVTVVTGGEVKKLKRLTFQFGDARKDSSLHITAAQTGDTGLYLCAGGMESGGGADGLTFGKGTHLIIQP
Vbeta: DTGVSQNPRHKITKRGQNVTFRCDPISEHNRLYWYRQTLGQGPEFLTYFQNEAQLEKSRLLSDRFSAERPKGSFSTLEIQRTEQGDSAMYLCASTSTGGLKNTEAFFGQGTRLTVV
binding result [2]: recognises
